In article PMC4027183 one finds Kd data, which are given here for three molecules.

Holding throughout (assay): ITC
A general note: Isothermal titration calorimetry measures the heat released or taken up as one component is titrated into another.

One data set concerns the target T1, TIA-1 RRM1,2,3 (Homo sapiens, UniProt P31483-2 1-274).
T1 sequence: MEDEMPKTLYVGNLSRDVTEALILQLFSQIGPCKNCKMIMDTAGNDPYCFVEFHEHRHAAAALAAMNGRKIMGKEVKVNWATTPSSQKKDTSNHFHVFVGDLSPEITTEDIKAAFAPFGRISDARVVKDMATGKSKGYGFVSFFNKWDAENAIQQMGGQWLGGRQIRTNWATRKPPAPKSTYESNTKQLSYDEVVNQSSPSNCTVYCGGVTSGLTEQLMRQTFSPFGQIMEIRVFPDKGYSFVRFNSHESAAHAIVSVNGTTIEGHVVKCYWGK

Data set [1] addresses T2, TIA-1 RRM2,3 (Homo sapiens, UniProt P31483-2 93-274).
T2 sequence: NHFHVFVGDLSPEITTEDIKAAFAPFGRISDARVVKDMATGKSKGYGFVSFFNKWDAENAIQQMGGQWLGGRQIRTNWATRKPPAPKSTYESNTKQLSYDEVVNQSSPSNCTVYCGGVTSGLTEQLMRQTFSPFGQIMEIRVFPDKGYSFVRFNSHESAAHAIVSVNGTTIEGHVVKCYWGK

The target of data set [2] is T2, TIA-1 RRM2,3. This is another data set of the same source.
Data set [3] addresses T2, TIA-1 RRM2,3. The source holds these as a separate data set.

Where two headings read alike, the source gives them in different places.

Turning to UUUUUUUUUUUUUUU (ssRNA) [U15], the Kd (commonly the free concentration of one partner at which half of the binding sites on the other are occupied at equilibrium, for simple one-to-one binding) with TIA-1 RRM1,2,3 is 16.9 ± 2.7 nM.

For the molecule UUCUCCUUUC (ssRNA) [fas_10], in the data set with TIA-1 RRM2,3 [1], the Kd came out at 35.6 ± 8.1 nM.

UUUUUUUUU (ssRNA) [U9]: the Kd worked out at 7 ± 0.2 nM with TIA-1 RRM2,3 [2] and 5.6 ± 1.9 nM in the data set with TIA-1 RRM2,3 [3].
